Measurements taken from paper PMC12806483, “Dual role of ramR mutation in enhancing immune activation and elevating eravacycline resistance in Klebsiella pneumoniae”.

Key:
Assay in all cases: EMSA; 2 uM protein, 200 nM DNA
Conditions in all cases: protein: recombinant; tags: N-terminal His6; chain copies: 2; label: none (NA-Green stain); blunt
RamR I141T = RamR I141T (Klebsiella pneumoniae, UniProt A0A0H3GJQ8 1-194, I141T)
RamR WT = RamR WT (Klebsiella pneumoniae, UniProt A0A0H3GJQ8 1-194)
RamR L58P = RamR L58P (Klebsiella pneumoniae, UniProt A0A0H3GJQ8 1-194, L58P)

B1: ramA promoter probe (ramA P-F/ramA P-R) (dsDNA)
DNA 1: AAAACGAATCGTCCTGCATGCCCAGGCAGCACCGCGCGAGCGCGCAGGTCGTCGGCAGCCTGAGCCGTTTCATCCGGCATCATGTGGATATATTTCCAGTC
DNA 2: GACTGGAAATATATCCACATGATGCCGGATGAAACGGCTCAGGCTGCCGACGACCTGCGCGCTCGCGCGGTGCTGCCTGGGCATGCAGGACGATTCGTTTT
Question: Does B1 bind (RamR I141T)?
Answer: binds

Question: Does B1 bind (RamR WT)?
Answer: binds

Question: Does B1 bind (RamR L58P)?
Answer: no binding
